Experimental data published in patent US20110142842A1 (MEDINNOVA, published 2011).

Target: HLA-A*0201 (human, UniProt A*02:01)
Assay: REVEAL MHC binding assay (ProImmune)

Binder	% Pass/fail control
ILYPINILI [Peptide ID 48 ILYPINILI (CD11a)]	214 % of pass/fail control
FLQDTFPQQ [Peptide ID 70 FLQDTFPQQ (CD127)]	49.8 % of pass/fail control
VLIGILLLV [Peptide ID 35 VLIGILLLV (CD18)]	117 % of pass/fail control
KLFTSVFGV [Peptide ID 31 KLFTSVFGV (TdT)]	200 % of pass/fail control
LLLTNTFGA [Peptide ID 92 LLLTNTFGA (CD11a)]	196 % of pass/fail control
ALASVLLAL [Peptide ID 73 ALASVLLAL (PR3)]	139 % of pass/fail control
FLDCQIHRV [Peptide ID 7 FLDCQIHRV (CD127)]	224 % of pass/fail control
TLQPPWVSV [Peptide ID 26 TLQPPWVSV (CD64)]	197 % of pass/fail control
FLYIGIITI [Peptide ID 4 FLYIGIITI (CD53)]	136 % of pass/fail control
SLFEGIYTI [Peptide ID 6 SLFEGIYTI (FLT3)]	183 % of pass/fail control
SMEEAKQLV [Peptide ID 71 SMEEAKQLV (MPO)]	169 % of pass/fail control
ILFAFVSSV [Peptide ID 25 ILFAFVSSV (FLT3)]	221 % of pass/fail control
EMDEELHYA [Peptide ID 54 EMDEELHYA (CD33)]	117 % of pass/fail control
GLADVAVGA [Peptide ID 64 GLADVAVGA (CD11a)]	206 % of pass/fail control
IMSDSNYVV [Peptide ID 65 IMSDSNYVV (FLT3)]	220 % of pass/fail control
LLSGFFFFA [Peptide ID 29 LLSGFFFFA (CD11a)]	210 % of pass/fail control
LMIPAGIYA [Peptide ID 40 LMIPAGIYA (CD20)]	142 % of pass/fail control
FLLLTISLL [Peptide ID 88 FLLLTISLL (CD52)]	302 % of pass/fail control
SLWRRPFNV [Peptide ID 22 SLWRRPFNV (MPO)]	301 % of pass/fail control
ALAGVLAIL [Peptide ID 30 ALAGVLAIL (MPO)]	210 % of pass/fail control
YLRPGQAAA [Peptide ID 52 YLRPGQAAA (CD18)]	125 % of pass/fail control
ILLWEIFSL [Peptide ID 3 ILLWEIFSL (FLT3)]	199 % of pass/fail control
VLLVVLLVV [Peptide ID 90 VLLVVLLVV (CD5)]	71.5 % of pass/fail control
RLYQFLLDL [Peptide ID 66 RLYQFLLDL (PU.1)]	234 % of pass/fail control
RLFEQVMRI [Peptide ID 43 RLFEQVMRI (MPO)]	192 % of pass/fail control
YISRDTCIV [Peptide ID 69 YISRDTCIV (HA-2)]	133 % of pass/fail control

Binder	% Pass/fail control
LVAPRFLEV [Peptide ID 85 LVAPRFLEV (CD50)]	340 % of pass/fail control
ILTALFLRV [Peptide ID 61 ILTALFLRV (TCR_TV)]	159 % of pass/fail control
WLQAQKVQV [Peptide ID 63 WLQAQKVQV (TdT)]	190 % of pass/fail control
GMGWAAFNL [Peptide ID 45 GMGWAAFNL (CD50)]	193 % of pass/fail control
HLYGSNASL [Peptide ID 38 HLYGSNASL (CD11a)]	135 % of pass/fail control
LLLSGAARA [Peptide ID 51 LLLSGAARA (PR3)]	178 % of pass/fail control
KLLLALAGV [Peptide ID 67 KLLLALAGV (MPO)]	216 % of pass/fail control
LLWAGALAM [Peptide ID 86 LLWAGALAM (CD33)]	321 % of pass/fail control
LLMSFFILL [Peptide ID 27 LLMSFFILL (CD53)]	189 % of pass/fail control
LLEGNLVTL [Peptide ID 76 LLEGNLVTL (CD64)]	173 % of pass/fail control
GLMATPAKL [Peptide ID 77 GLMATPAKL (MPO)]	218 % of pass/fail control
FLLGLGLGV [Peptide ID 8 FLLGLGLGV (CD7)]	202 % of pass/fail control
NLEEDAYWV [Peptide ID 57 NLEEDAYWV (CD11a)]	64.9 % of pass/fail control
YLGYTVTWL [Peptide ID 93 YLGYTVTWL (CD11a)]	239 % of pass/fail control
YLMDLSYSM [Peptide ID 21 YLMDLSYSM (CD18)]	198 % of pass/fail control
YLALGDQML [Peptide ID 91 YLALGDQML (CD50)]	197 % of pass/fail control
ALARGLPGA [Peptide ID 53 ALARGLPGA (CD7)]	215 % of pass/fail control
VLQELNVTV [Peptide ID 34 VLQELNVTV (PR3)]	170 % of pass/fail control
KLMSPKLYV [Peptide ID 55 KLMSPKLYV (CD19)]	232 % of pass/fail control
GLYQGLSTA [Peptide ID 41 GLYQGLSTA (TCR_TV)]	107 % of pass/fail control
LLIHNNFGV [Peptide ID 42 LLIHNNFGV (CD53)]	191 % of pass/fail control
TLPQLFLKV [Peptide ID 72 TLPQLFLKV (FLT3)]	182 % of pass/fail control
LIQPFMFRL [Peptide ID 84 LIQPFMFRL (MPO)]	311 % of pass/fail control
GLLSPQAQV [Peptide ID 33 GLLSPQAQV (FLT3)]	170 % of pass/fail control
VLTPAQLNV [Peptide ID 44 VLTPAQLNV (MPO)]	175 % of pass/fail control
YLKDGWHMV [Peptide ID 2 YLKDGWHMV (CD5)]	182 % of pass/fail control

Binder	% Pass/fail control
YLAVGIMFL [Peptide ID 5 YLAVGIMFL (CD64)]	155 % of pass/fail control
VLFHNLPSL [Peptide ID 49 VLFHNLPSL (CD53)]	216 % of pass/fail control
FIYGVILTA [Peptide ID 60 FIYGVILTA (TCR_TV)]	149 % of pass/fail control
LMGTLIAKV [Peptide ID 83 LMGTLIAKV (HA-1)]	316 % of pass/fail control
LLIILLAEV [Peptide ID 68 LLIILLAEV (CD53)]	99.2 % of pass/fail control
FMQPLFLVA [Peptide ID 62 FMQPLFLVA (HA-1)]	215 % of pass/fail control
KMAEAYSEI [Peptide ID 46 KMAEAYSEI (TCR_TV)]	200 % of pass/fail control
DMKDSIWWV [Peptide ID 37 DMKDSIWWV (PU.1)]	131 % of pass/fail control
YLIFCLCSL [Peptide ID 50 YLIFCLCSL (CD19)]	71.2 % of pass/fail control
LLLTISLLV [Peptide ID 81 LLLTISLLV (CD52)]	250 % of pass/fail control
SLHSETWEI [Peptide ID 32 SLHSETWEI (CD11a)]	179 % of pass/fail control
AIWLFIFNV [Peptide ID 80 AIWLFIFNV (CD19)]	199 % of pass/fail control
ELLDVSWLI [Peptide ID 74 ELLDVSWLI (TdT)]	220 % of pass/fail control
SMSEEVTYA [Peptide ID 56 SMSEEVTYA (CLL-1)]	158 % of pass/fail control
SMLDDLRNV [Peptide ID 24 SMLDDLRNV (CD18)]	251 % of pass/fail control
SICEGTVEV [Peptide ID 59 SICEGTVEV (CD5)]	130 % of pass/fail control
LLLPLLLAL [Peptide ID 28 LLLPLLLAL (CD7)]	253 % of pass/fail control
LLAEVTLAI [Peptide ID 47 LLAEVTLAI (CD53)]	199 % of pass/fail control
HLLGPWLLL [Peptide ID 94 HLLGPWLLL (CD22)]	212 % of pass/fail control
VLLRWEEEL [Peptide ID 89 VLLRWEEEL (CD50)]	184 % of pass/fail control
RLYENRASL [Peptide ID 23 RLYENRASL (HA-1)]	266 % of pass/fail control
LLRTGGWKV [Peptide ID 39 LLRTGGWKV (CD19)]	124 % of pass/fail control
LLLLLIFIV [Peptide ID 58 LLLLLIFIV (CD11a)]	6.4 % of pass/fail control
LLLQVSSRV [Peptide ID 36 LLLQVSSRV (CD64)]	180 % of pass/fail control
